Laboratory results: patent publication US20200216522A1 (DENALI THERAPEUTICS, published 2020)

T1: Peptide_036 (human)
T1 peptide: PPAPKTPPSSGEPPK

T2: Peptide_078 (human)
T2 peptide: TDHGAEIVYKSPVVS

T3: Peptide_058 (human)
T3 peptide: NVQSKCGSKDNIKHV

T4: Peptide_002 (human)
T4 peptide: QEFEVMEDHAGTYGL

T5: Peptide_072 (human)
T5 peptide: SLDNITHVPGGGNKK

T6: Peptide_024 (human)
T6 peptide: DEAAGHVTQARMVSK

T7: Peptide_043 (human)
T7 peptide: RTPSLPTPPTREPKK

T8: Peptide_080 (human)
T8 peptide: SPVVSGDTSPRHLSN

T9: Peptide_040 (human)
T9 peptide: GYSSPGSPGTPGSRS

T10: Peptide_045 (human)
T10 peptide: REPKKVAVVRTPPKS

T11: Peptide_063 (human)
T11 peptide: KPVDLSKVTSKCGSL

T12: Peptide_053 (human)
T12 peptide: GSTENLKHQPGGGKV

T13: Peptide_055 (human)
T13 peptide: GGGKVQIINKKLDLS

T14: Peptide_041 (human)
T14 peptide: GSPGTPGSRSRTPSL

T15: Peptide_062 (human)
T15 peptide: VQIVYKPVDLSKVTS

T16: process-control peptide
T16 construct: array control, not a Tau peptide
T16 peptide: GGSGGGSDYKDDDDK

T17: Peptide_016 (human)
T17 peptide: TAPLVDEGAPGKQAA

T18: Peptide_005 (human)
T18 peptide: GDRKDQGGYTMHQDQ

T19: Peptide_059 (human)
T19 peptide: CGSKDNIKHVPGGGS

T20: Peptide_071 (human)
T20 peptide: QSKIGSLDNITHVPG

T21: Peptide_021 (human)
T21 peptide: TTAEEAGIGDTPSLE

T22: Peptide_038 (human)
T22 peptide: GEPPKSGDRSGYSSP

T23: Peptide_013 (human)
T23 peptide: SETSDAKSTPTAEDV

T24: Peptide_001 (human)
T24 peptide: MAEPRQEFEVMEDHA

T25: Peptide_067 (human)
T25 peptide: KPGGGQVEVKSEKLD

T26: Peptide_065 (human)
T26 peptide: KCGSLGNIHHKPGGG

T27: Peptide_074 (human)
T27 peptide: GGNKKIETHKLTFRE

B1: murine anti-Tau hybridoma antibody 17G2.A1 (antibody, V domains shown)
VH: QVQLQQPGAELVGPGSSVKLSCKASGYTFINYWIDWMKQSPGQGLEWIGNIYPSDSESHYNQKFTDKATLTVDISSSTAYLQLSSLTSEDSAVYYCALYSKGYWGQGTSVTVSS
VL: DVLMTQTPLSLPVTLGDQASISCRSSQNIVHTNGNTYLEWYLQKPGQSPKLLIYKLSSRFSGVPDRFSGSGSGTDFTLKISRVEAEDLGVYYCFQGSHLPFTFGGGTKLEIKR
notes: mouse IgG from hybridoma; also called anti-Tau 17G2.A1
B2: chimeric IgG clone 1A1 (antibody, V domains shown)
VH: EVQLQQSGAELVRPGASVRLSCTASGFNIKDSLMHWLKQRPEQGLEWIGWIDPEDGETKYAPKFQDKATITADTSSNTAYLQLSSLTSEDTAIYYCTRRDWEGPWGQGTLVTVSA
VL: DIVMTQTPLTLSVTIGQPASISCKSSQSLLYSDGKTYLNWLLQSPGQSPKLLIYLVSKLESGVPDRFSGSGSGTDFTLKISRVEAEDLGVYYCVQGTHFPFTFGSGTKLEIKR
notes: mouse-human chimeric IgG from HEK293; also called anti-Tau 1A1; anti-Tau^1A1

Tests used:
Experiment in all cases: peptide array
Peptide_036 = target: T1, Peptide_036
Protocol: (§1) Chimeric IgG antibodies were diluted to a concentration of 5 μg/mL in 3% bovine serum albumin in Tris-buffered saline (10 mM Tris, pH 7.5, 150 mM NaCl) supplemented with 0.05% Tween®20 (3% BSA-TBST). Diluted antibodies were allowed to bind to peptides printed onto slides for 2 hours at room temperature as described in the PepStar™ user manual (JPT Technologies). Following extensive washing (5×5 minutes with TBST), slides were incubated with secondary antibodies goat anti-human IgG, Alexa Fluor 568 conjugate, 1 μg/mL in 3% BSA-TBST) for 1 hour at room temperature. After extensive washing, (5×5 minutes with TBST, then 5×5 minutes with ultrapure water), slides were dried overnight and imaged using an Opera Phenix™ system in the 568 nm channel. Images were aligned to peptide array definition files using Galviewer software obtained from JPT Technologies and ImageJ software with control human IgG serving as landmarks.
(§2) Full-length human Tau (encoded by the microtubule-associated protein Tau isoform 2 gene (MAPT), amino acid sequence NCBI Reference Sequence No. NP_005901.2, SEQ ID NO: 1, variant designation “2N4R”) was divided into 15 amino acid peptides, offset by 5 amino acids (overlapping by 10 amino acids). Peptides were synthesized and covalently attached to silica slides in triplicate with a spot size of 0.5 mm (obtained from JPT Technologies, Berlin, Germany). Antibodies muIgG were diluted to a concentration of 30 μg/mL in 3% bovine serum albumin in Tris-buffered saline (10 mM Tris, pH 7.5, 150 mM NaCl) supplemented with 0.05% Tween® 20 (3% BSA-TBST). Diluted antibodies were allowed to bind to peptides printed onto slides for 2 hours at room temperature as described in the Pepstar™ user manual (JPT Technologies). Following extensive washing (5×5 min TBST), slides were incubated with secondary antibodies (donkey anti-mouse IgG, Alexafluor 647 conjugate, 5 μg/mL in 3% BSA-TBST) for 1 hour at room temperature. After extensive washing, (5×5 minutes TBST, 5×5 minutes ultrapure water), slides were dried under a stream of nitrogen and imaged on the Opera Phenix in the 647 nm channel. Images were aligned to peptide array definition file using Galviewer software obtained from JPT Technologies and ImageJ software with control mouse IgG serving as landmarks.

Peptide_078 = target: T2, Peptide_078
Protocol: as §1, §2

Peptide_058 = target: T3, Peptide_058
Protocol: as §1, §2

Peptide_002 = target: T4, Peptide_002
Protocol: as §1, §2

Peptide_072 = target: T5, Peptide_072
Protocol: as §1, §2

Peptide_024 = target: T6, Peptide_024
Protocol: as §1, §2

Peptide_043 = target: T7, Peptide_043
Protocol: as §1, §2

Peptide_080 = target: T8, Peptide_080
Protocol: as §1, §2

Peptide_040 = target: T9, Peptide_040
Protocol: as §1, §2

Peptide_045 = target: T10, Peptide_045
Protocol: as §1, §2

Peptide_063 = target: T11, Peptide_063
Protocol: as §1, §2

Peptide_053 = target: T12, Peptide_053
Protocol: as §1, §2

Peptide_055 = target: T13, Peptide_055
Protocol: as §1, §2

Peptide_041 = target: T14, Peptide_041
Protocol: as §1, §2

Peptide_062 = target: T15, Peptide_062
Protocol: as §1, §2

process-control peptide = target: T16, process-control peptide
Protocol: as §1, §2

Peptide_016 = target: T17, Peptide_016
Protocol: as §1, §2

Peptide_005 = target: T18, Peptide_005
Protocol: as §1, §2

Peptide_059 = target: T19, Peptide_059
Protocol: as §1, §2

Peptide_071 = target: T20, Peptide_071
Protocol: as §1, §2

Peptide_021 = target: T21, Peptide_021
Protocol: as §1, §2

Peptide_038 = target: T22, Peptide_038
Protocol: as §1, §2

Peptide_013 = target: T23, Peptide_013
Protocol: as §1, §2

Peptide_001 = target: T24, Peptide_001
Protocol: as §1, §2

Peptide_067 = target: T25, Peptide_067
Protocol: as §1, §2

Peptide_065 = target: T26, Peptide_065
Protocol: as §1, §2

Peptide_074 = target: T27, Peptide_074
Protocol: as §1, §2

Binder | binding result (Peptide_036) | binding result (Peptide_078) | binding result (Peptide_058) | binding result (Peptide_002) | binding result (Peptide_072) | binding result (Peptide_024) | binding result (Peptide_043) | binding result (Peptide_080) | binding result (Peptide_040) | binding result (Peptide_045) | binding result (Peptide_063) | binding result (Peptide_053) | binding result (Peptide_055) | binding result (Peptide_041) | binding result (Peptide_062) | binding result (process-control peptide) | binding result (Peptide_016) | binding result (Peptide_005) | binding result (Peptide_059) | binding result (Peptide_071) | further results
B1 | no binding (tested: 30 ug/mL) | no binding (tested: 30 ug/mL) | no binding (tested: 30 ug/mL) | no binding (tested: 30 ug/mL) | no binding (tested: 30 ug/mL) | no binding (tested: 30 ug/mL) | no binding (tested: 30 ug/mL) | no binding (tested: 30 ug/mL) | no binding (tested: 30 ug/mL) | no binding (tested: 30 ug/mL) | no binding (tested: 30 ug/mL) | no binding (tested: 30 ug/mL) | no binding (tested: 30 ug/mL) | no binding (tested: 30 ug/mL) | no binding (tested: 30 ug/mL) | no binding (tested: 30 ug/mL) | no binding (tested: 30 ug/mL) | no binding (tested: 30 ug/mL) | no binding (tested: 30 ug/mL) | no binding (tested: 30 ug/mL) | binding result (Peptide_021): no binding (tested: 30 ug/mL); binding result (Peptide_038): binds; binding result (Peptide_013): no binding (tested: 30 ug/mL); binding result (Peptide_001): no binding (tested: 30 ug/mL); binding result (Peptide_067): no binding (tested: 30 ug/mL); binding result (Peptide_065): no binding (tested: 30 ug/mL); binding result (Peptide_074): no binding (tested: 30 ug/mL)
B2 | no binding (tested: 5 ug/mL) | no binding (tested: 5 ug/mL) | no binding (tested: 5 ug/mL) | no binding (tested: 5 ug/mL) | no binding (tested: 5 ug/mL) | no binding (tested: 5 ug/mL) | no binding (tested: 5 ug/mL) | no binding (tested: 5 ug/mL) | no binding (tested: 5 ug/mL) | no binding (tested: 5 ug/mL) | no binding (tested: 5 ug/mL) | no binding (tested: 5 ug/mL) | no binding (tested: 5 ug/mL) | no binding (tested: 5 ug/mL) | no binding (tested: 5 ug/mL) | no binding (tested: 5 ug/mL) | no binding (tested: 5 ug/mL) | no binding (tested: 5 ug/mL) | no binding (tested: 5 ug/mL) | no binding (tested: 5 ug/mL) | binding result (Peptide_021): no binding (tested: 5 ug/mL); binding result (Peptide_038): no binding (tested: 5 ug/mL); binding result (Peptide_013): no binding (tested: 5 ug/mL); binding result (Peptide_001): no binding (tested: 5 ug/mL); binding result (Peptide_067): no binding (tested: 5 ug/mL); binding result (Peptide_065): no binding (tested: 5 ug/mL); binding result (Peptide_074): no binding (tested: 5 ug/mL)
